Laboratory results: patent US20250326818A1 (UNIVERSIT T BASEL, published 2025)

Legend:
Experiment in all cases: BLI (Octet), biotinylated CD123 ECD captured on streptavidin tips, hIL3 as analyte, level at 250 s normalised to loading
CD123 ECD E51Q = molecular target: T1, CD123 ECD E51Q (human, UniProt P26951 19-305)
T1 construct: Recombinant ECD
T1 sequence: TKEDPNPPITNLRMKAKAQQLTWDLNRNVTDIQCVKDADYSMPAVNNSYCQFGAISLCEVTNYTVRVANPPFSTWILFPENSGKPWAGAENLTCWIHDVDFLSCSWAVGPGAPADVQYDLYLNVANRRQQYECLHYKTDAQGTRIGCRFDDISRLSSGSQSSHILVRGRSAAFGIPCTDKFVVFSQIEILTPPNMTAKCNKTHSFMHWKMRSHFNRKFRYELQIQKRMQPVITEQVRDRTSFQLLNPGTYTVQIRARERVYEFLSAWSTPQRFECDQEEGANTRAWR
Experimental: (§1) Binding of hIL3 (SinoBiological, PN: 11858-H08H) (analyte) to CD123 ECD wt. and variants (ligands) was performed using Streptavidin capture biosensor (SA) (Sartorius, PN: 18-5019). CD123 ECD wt. and variants were biotinylated using Biotinylation kit Type B (Abeam, PN: ab201796) following manufacturer instructions. Biotinylated CD123 ECD wt. and variants (ligands) were captured on SA tips for 1000 s to achieve a nm shift of 1.5 to 2 nm. Analyte hIL3 was titrated at 7 concentrations from 500 to 7.8 nM. Association to analyte was monitored for 300 s and dissociation for 120 s. Buffer only well was used as reference. No regeneration was performed, and a new set of tips was used for each biotinylated captured ligand. Data were analyzed using the Octet Data Analysis software HT 12.0. Due to the fast on/off nature of the interaction data were analyzed using Steady state analysis. Qualitative representation in FIG. 11 binding level were taken at 250 s association for all concentrations.

CD123 ECD E51A = molecular target: T2, CD123 ECD E51A (human, UniProt P26951 19-305)
T2 construct: Recombinant ECD
T2 sequence: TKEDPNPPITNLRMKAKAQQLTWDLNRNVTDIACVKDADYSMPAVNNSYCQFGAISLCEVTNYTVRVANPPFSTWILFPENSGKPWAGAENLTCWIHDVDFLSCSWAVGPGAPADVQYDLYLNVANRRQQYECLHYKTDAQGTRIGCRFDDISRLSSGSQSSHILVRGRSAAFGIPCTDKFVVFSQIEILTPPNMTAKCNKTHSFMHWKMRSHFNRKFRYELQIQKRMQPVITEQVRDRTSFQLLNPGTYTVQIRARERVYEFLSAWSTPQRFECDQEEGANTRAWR
Experimental: as §1

CD123 ECD S59F = molecular target: T3, CD123 ECD S59F (human, UniProt P26951 19-305)
T3 construct: Recombinant ECD
T3 sequence: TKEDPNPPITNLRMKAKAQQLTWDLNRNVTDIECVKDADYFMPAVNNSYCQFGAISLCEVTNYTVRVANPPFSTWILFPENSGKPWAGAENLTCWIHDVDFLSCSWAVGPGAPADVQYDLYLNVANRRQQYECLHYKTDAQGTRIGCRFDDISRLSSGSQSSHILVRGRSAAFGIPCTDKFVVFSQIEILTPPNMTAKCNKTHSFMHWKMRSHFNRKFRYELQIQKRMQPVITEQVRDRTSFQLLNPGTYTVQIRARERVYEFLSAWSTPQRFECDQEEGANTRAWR
Experimental: as §1

CD123 ECD R84T = molecular target: T4, CD123 ECD R84T (human, UniProt P26951 19-305)
T4 construct: Recombinant ECD
T4 sequence: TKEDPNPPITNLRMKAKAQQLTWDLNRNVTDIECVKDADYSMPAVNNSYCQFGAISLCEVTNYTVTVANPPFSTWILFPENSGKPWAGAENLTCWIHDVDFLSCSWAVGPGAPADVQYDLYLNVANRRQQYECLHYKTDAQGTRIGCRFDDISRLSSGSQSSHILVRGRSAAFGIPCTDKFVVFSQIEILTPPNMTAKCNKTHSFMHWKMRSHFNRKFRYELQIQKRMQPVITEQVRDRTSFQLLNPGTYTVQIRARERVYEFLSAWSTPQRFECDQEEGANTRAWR
Experimental: as §1

CD123 ECD R84Q = molecular target: T5, CD123 ECD R84Q (human, UniProt P26951 19-305)
T5 construct: Recombinant ECD
T5 sequence: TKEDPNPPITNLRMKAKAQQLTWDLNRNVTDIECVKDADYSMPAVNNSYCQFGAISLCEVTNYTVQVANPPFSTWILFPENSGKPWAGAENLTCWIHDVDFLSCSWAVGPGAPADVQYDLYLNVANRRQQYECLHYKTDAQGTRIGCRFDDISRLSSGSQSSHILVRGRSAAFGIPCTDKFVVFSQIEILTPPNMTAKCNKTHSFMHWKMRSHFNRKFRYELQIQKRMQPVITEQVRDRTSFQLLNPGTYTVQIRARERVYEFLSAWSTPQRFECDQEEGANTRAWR
Experimental: as §1

CD123 ECD wt = molecular target: T6, CD123 ECD wt (human, UniProt P26951 19-305)
T6 construct: Recombinant extracellular domain; Biotinylated when captured for the hIL3 assay; also called CD123_WT; recombinant wildtype CD123
T6 sequence: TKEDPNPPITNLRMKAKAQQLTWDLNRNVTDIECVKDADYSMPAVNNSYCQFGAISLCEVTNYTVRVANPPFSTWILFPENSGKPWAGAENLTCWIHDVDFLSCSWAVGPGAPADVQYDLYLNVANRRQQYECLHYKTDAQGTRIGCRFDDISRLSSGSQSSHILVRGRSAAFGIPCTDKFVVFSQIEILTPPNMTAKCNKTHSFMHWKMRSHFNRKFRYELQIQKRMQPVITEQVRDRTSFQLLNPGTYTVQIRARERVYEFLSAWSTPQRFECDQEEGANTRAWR
Experimental: as §1

Measured: binding result

B1: hIL3 (ligand, human, UniProt P08700 20-152, looked up)
chain: APMTQTTPLKTSWVNCSNMIDEIITHLKQPPLPLLDFNNLNGEDQDILMENNLRRPNLEAFNRAVKSLQNASAIESILKNLLPCLPLATAAPTRHPIHIKDGDWNEFRRKLTFYLKTLENAQAQQTTLSLAIF
notes: also called Interleukin-3
binds: all assays above
